Results reported in patent US20150291967.

Tests used:
Assay in all cases: cell_activity
[1] = test system: TALEN ALS2_T02 right monomer (synthetic construct)
[2] = test system: TALEN ALS2_T01 left monomer (synthetic construct)
[3] = test system: TALEN ALS1_T02 right monomer (synthetic construct)
[4] = test system: TALEN ALS2_T01 right monomer (synthetic construct)
[5] = test system: TALEN ALS2_T02 left monomer (synthetic construct)
[6] = test system: TALEN ALS1_T02 left monomer (synthetic construct)
[7] = test system: TALEN ALS1_T01 left monomer (synthetic construct); settings: yeast beta-galactosidase reporter, pair with P2, 37 C (0.83 at 30 C)
[8] = test system: TALEN ALS1_T01 right monomer (synthetic construct); settings: yeast beta-galactosidase reporter, pair with P1, 37 C (0.83 at 30 C)

Q: How did the activity ([1]; endogenous site, N. benthamiana protoplasts, pair with P7, control 0.10%) turn out when “CTGTCTCCTATTTCCTA (double strand) [ALS2_T02 right half-site (top strand)]” was run?
A: 66.9 % NHEJ

Q: And the activity (relative to I-SceI) ([1]; yeast beta-galactosidase reporter, pair with P7, 37 C (0.9 at 30 C))?
A: 1

Q: How did the activity ([2]; endogenous site, N. benthamiana protoplasts, pair with P6, control 0.25%) turn out when “TAGCTTGTTCCACATTT (double strand) [ALS2_T01 left half-site]” was run?
A: 74 % NHEJ

Q: What about the activity (relative to I-SceI) ([2]; yeast beta-galactosidase reporter, pair with P6, 37 C (0.9 at 30 C)) of the same sequence?
A: 1

Q: Which results are given for “TATAAGTTGATTCTTAA (double strand) [ALS1_T02 right half-site (top strand)]”?
A: activity ([3]; endogenous site, N. benthamiana protoplasts, pair with P3, control 0.55%): 4.9 % NHEJ; activity (relative to I-SceI) ([3]; yeast beta-galactosidase reporter, pair with P3, 37 C (0.90 at 30 C)): 0.95

Q: “TGTCATGCTGGGTCAGA (double strand) [ALS2_T01 right half-site (top strand)]” was tested. Which activity ([4]; endogenous site, N. benthamiana protoplasts, pair with P5, control 0.25%) did it give?
A: 74 % NHEJ

Q: And the activity (relative to I-SceI) ([4]; yeast beta-galactosidase reporter, pair with P5, 37 C (0.9 at 30 C))?
A: 1

Q: For “TTCTCTCGAGTCCTAGG (double strand) [ALS2_T02 left half-site]”, which activity ([5]; endogenous site, N. benthamiana protoplasts, pair with P8, control 0.10%) is on record?
A: 66.9 % NHEJ

Q: What about the activity (relative to I-SceI) ([5]; yeast beta-galactosidase reporter, pair with P8, 37 C (0.9 at 30 C)) of the same sequence?
A: 1

Q: Which activity ([6]; endogenous site, N. benthamiana protoplasts, pair with P4, control 0.55%) does the source give for “TTGGACTTGTATGGGTT (double strand) [ALS1_T02 left half-site]” here?
A: 4.9 % NHEJ

Q: And the activity (relative to I-SceI) ([6]; yeast beta-galactosidase reporter, pair with P4, 37 C (0.90 at 30 C))?
A: 0.95

Q: How did the activity (relative to I-SceI) [7] turn out when “TTTAGTGCGATAAAGTT (double strand) [ALS1_T01 left half-site]” was run?
A: 0.93

Q: With “TTTTATTTCGTAAGCTA (double strand) [ALS1_T01 right half-site (top strand)]” as the sequence, how does the activity (relative to I-SceI) [8] read?
A: 0.93
